Measured values from the supplement of paper PMC11316812.
± gives the standard deviation of the averaged measurements.

Legend:
MCF7 = assay: percentage of EdU-negative (G0-arrested) nuclei per well, 72 h; higher = more G0 arrest; conditions: reference: sequence is the full UniProt precursor, the tested protein was the secreted form or ectodomain
hTERT-HMEC = assay: as above; conditions: reference: sequence is the full UniProt precursor, the tested protein was the secreted form or ectodomain
[1] = protein concentration 0.03125 µM
[2] = protein concentration 0.3125 µM
[3] = protein concentration 0.0217725 µM
[4] = protein concentration 0.217725 µM
[5] = protein concentration 0.0225 µM
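Also: secreted proteins added to cultured cells, EdU pulse at the end, nuclei found by Hoechst imaging, EdU status from nuclear versus surrounding ring intensity ratio, PBS as neutral control.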

Row | Sequence | percentage of EdU-negative (MCF7; [1]) [%] | percentage of EdU-negative (MCF7; [2]) [%] | percentage of EdU-negative (hTERT-HMEC; [1]) [%] | percentage of EdU-negative (hTERT-HMEC; [2]) [%] | percentage of EdU-negative (MCF7; [5]) [%] | percentage of EdU-negative (MCF7; protein concentration 0.225 µM) [%] | percentage of EdU-negative (hTERT-HMEC; [5]) [%] | percentage of EdU-negative (hTERT-HMEC; protein concentration 0.225 µM) [%] | other results
1 | MEMFQGLLLLLLLSMGGTWASREMLRPRCRPINATLAVEKEGCPVCITVNTTICAGYCPTMTRVLQGVLPALPQVVCNYRDVRFESIRLPGCPRGVNPVVSYAVALSCQCALCRRSTTDCGGPKDHPLTCDDPRFQASSSSKAPPPSLPSPSRLPGPSDTPILPQ | 24.4 ± 2.5 | 25 ± 1 | 5.61 ± 0.69 | 5.26 ± 0.82 |  |  |  |  | 
2 | MEMLQGLLLLLLLSMGGAWASREPLRPWCHPINAILAVEKEGCPVCITVNTTICAGYCPTMMRVLQAVLPPLPQVVCTYRDVRFESIRLPGCPRGVDPVVSFPVALSCRCGPCRRSTSDCGGPKDHPLTCDHPQLSGLLFL | 25.1 ± 1.9 | 25.5 ± 0.84 | 5.24 ± 1 | 5.19 ± 1 |  |  |  |  | 
3 | MENPSPAAALGKALCALLLATLGAAGQPLGGESICSARALAKYSITFTGKWSQTAFPKQYPLFRPPAQWSSLLGAAHSSDYSMWRKNQYVSNGLRDFAERGEAWALMKEIEAAGEALQSVHAVFSAPAVPSGTGQTSAELEVQRRHSLVSFVVRIVPSPDWFVGVDSLDLCDGDRWREQAALDLYPYDAGTDSGFTFSSPNFATIPQDTVTEITSSSPSHPANSFYYPRLKALPPIARVTLVRLRQSPRAFIPPAPVLPSRDNEIVDSASVPETPLDCEVSLWSSWGLCGGHCGRLGTKSRTRYVRVQPANNGSPCPELEEEAECVPDNCV [Q9BUD6] |  |  |  |  |  |  |  |  | percentage of EdU-negative (MCF7; [3]): 23.8 ± 0.42%; percentage of EdU-negative (MCF7; [4]): 26.9 ± 1.5%; percentage of EdU-negative (hTERT-HMEC; [3]): 4.15 ± 0.79%; percentage of EdU-negative (hTERT-HMEC; [4]): 7.892 ± 0.078%
4 | MEPAAALHFSLPASLLLLLLLLLLSLCALVSAQFTVVGPANPILAMVGENTTLRCHLSPEKNAEDMEVRWFRSQFSPAVFVYKGGRERTEEQMEEYRGRITFVSKDINRGSVALVIHNVTAQENGIYRCYFQEGRSYDEAILRLVVAGLGSKPLIEIKAQEDGSIWLECISGGWYPEPLTVWRDPYGEVVPALKEVSIADADGLFMVTTAVIIRDKYVRNVSCSVNNTLLGQEKETVIFIPESFMPSASPWMVALAVILTASPWMVSMTVILAVFIIFMAVSICCIKKLQREKKILSGEKKVEQEEKEIAQQLQEELRWRRTFLHAADVVLDPDTAHPELFLSEDRRSVRRGPYRQRVPDNPERFDSQPCVLGWESFASGKHYWEVEVENVMVWTVGVCRHSVERKGEVLLIPQNGFWTLEMFGNQYRALSSPERILPLKESLCRVGVFLDYEAGDVSFYNMRDRSHIYTCPRSAFTVPVRPFFRLGSDDSPIFICPALTGASGVMVPEEGLKLHRVGTHQSL [Q8WVV5] |  |  |  |  | 25.6 ± 3.6 | 27.8 ± 0.4 | 4.5399 ± 0.0037 | 8.99 ± 1.1 | 
5 | MEPFTNDRLQLPRNMIENSMFEEEPDVVDLAKEPCLHPLEPDEVEYEPRGSRLLVRGLGEHEMEEDEEDYESSAKLLGMSFMNRSSGLRNSATGYRQSPDGACSVPSARTMVVCAFVIVVAVSVIMVIYLLPRCTFTKEGCHKKNQSIGLIQPFATNGKLFPWAQIRLPTAVVPLRYELSLHPNLTSMTFRGSVTISVQALQVTWNIILHSTGHNISRVTFMSAVSSQEKQAEILEYAYHGQIAIVAPEALLAGHNYTLKIEYSANISSSYYGFYGFSYTDESNEKKYFAATQFEPLAARSAFPCFDEPAFKATFIIKIIRDEQYTALSNMPKKSSVVLDDGLVQDEFSESVKMSTYLVAFIVGEMKNLSQDVNGTLVSIYAVPEKIGQVHYALETTVKLLEFFQNYFEIQYPLKKLDLVAIPDFEAGAMENWGLLTFREETLLYDSNTSSMADRKLVTKIIAHELAHQWFGNLVTMKWWNDLWLNEGFATFMEYFSLEKIFKELSSYEDFLDARFKTMKKDSLNSSHPISSSVQSSEQIEEMFDSLSYFKGSSLLLMLKTYLSEDVFQHAVVLYLHNHSYASIQSDDLWDSFNEVTNQTLDVKRMMKTWTLQKGFPLVTVQKKGKELFIQQERFFLNMKPEIQPSDTSYLWHIPLSYVTEGRNYSKYQSVSLLDKKSGVINLTEEVLWVKVNINMNGYYIVHYADDDWEALIHQLKINPYVLSDKDRANLINNIFELAGLGKVPLKRAFDLINYLGNENHTAPITEALFQTDLIYNLLEKLGYMDLASRLVTRVFKLLQNQIQQQTWTDEGTPSMRELRSALLEFACTHNLGNCSTTAMKLFDDWMASNGTQSLPTDVMTTVFKVGAKTDKGWSFLLGKYISIGSEAEKNKILEALASSEDVRKLYWLMKSSLNGDNFRTQKLSFIIRTVGRHFPGHLLAWDFVKENWNKLVQKFPLGSYTIQNIVAGSTYLFSTKTHLSEVQAFFENQSEATFRLRCVQEALEVIQLNIQWMEKNLKSLTWWL [Q9UIQ6] |  |  |  |  | 26.9 ± 1.8 | 29.26 ± 0.17 | 4.48 ± 0.24 | 11.1 ± 0.58 | 
6 | MEPLRLLILLFVTELSGAHNTTVFQGVAGQSLQVSCPYDSMKHWGRRKAWCRQLGEKGPCQRVVSTHNLWLLSFLRRWNGSTAITDDTLGGTLTITLRNLQPHDAGLYQCQSLHGSEADTLRKVLVEVLADPLDHRDAGDLWFPGESESFEDAHVEHSISRSLLEGEIPFPPTSILLLLACIFLIKILAASALWAAAWHGQKPGTHPPSELDCGHDPGYQLQTLPGLRDT [Q9NZC2] |  |  |  |  | 23.6 ± 1.7 | 29.3 ± 2.9 | 5.63 ± 0.64 | 7.25 ± 1.5 | 
